We go through two substances from article PMC13430412.

Assay [1] deals with Strep-tagged Rab7A (Q67L) (human) (UniProt P51149). Description: pull-down; Strep-Rab7A(Q67L) and FLAG-tagged VPS13C constructs co-expressed in Expi293F; lysate (buffer A with 1 mM GTP, 2 mM MgCl2) on Strep-Tactin XT resin, eluted with biotin; SDS-PAGE with Coomassie and/or anti-FLAG western blot.
Assay [2] concerns the target Rab7A(Q67L)-6xHis (human) (UniProt P51149). Description: liposome co-flotation; purified VPS13C constructs with SUVs (5% DGS-NTA) bearing His-tagged protein, 1 mM GTP, 2 mM Mg2+, room temperature 20 min; OptiPrep gradient, top fraction by SDS-PAGE.

Sequence of Strep-tagged Rab7A (Q67L) (human) (P51149 whole entry Q67L): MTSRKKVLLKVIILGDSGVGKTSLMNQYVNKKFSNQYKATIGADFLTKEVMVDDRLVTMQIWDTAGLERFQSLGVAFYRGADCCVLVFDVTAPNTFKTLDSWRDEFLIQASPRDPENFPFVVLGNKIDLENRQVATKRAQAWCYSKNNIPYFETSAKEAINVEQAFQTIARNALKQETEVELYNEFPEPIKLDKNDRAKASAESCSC
Sequence of Rab7A(Q67L)-6xHis (human) (P51149 whole entry Q67L): as above

“VPS13C-3XFLAG (full-length human VPS13C with a C-terminal 3xFLAG tag), Q709C8 1-3753”: the fraction of total overexpressed VPS13 retained in assay [1] came out at 5%. As to VPS13C-ΔATG2C-3xFLAG, Q709C8 1-3753, the fraction co-floated with SUVs bearing His-tagged Rab7A in assay [2] is over 80%.
